Laboratory results reported in patent US20180334496A1 (KODIAK SCIENCES, published 2018).

Columns and labels:
[1] = biological target: T1, human Complement Factor D (CFD), purified from human serum (human, UniProt P00746 26-253); test: SPR MX96, mAbs amine-coupled, CFD injected
T1 construct: serum purified (CompTech A136); also called serum purified CFD; hCFD-Comptech

[2] = biological target: T2, recombinant cynomolgus CFD, His-tagged (cynomolgus); test: SPR MX96
T2 construct: also called rcyCFD-His; recombinant Cyno-CFD

T1 sequence (P00746 26-253): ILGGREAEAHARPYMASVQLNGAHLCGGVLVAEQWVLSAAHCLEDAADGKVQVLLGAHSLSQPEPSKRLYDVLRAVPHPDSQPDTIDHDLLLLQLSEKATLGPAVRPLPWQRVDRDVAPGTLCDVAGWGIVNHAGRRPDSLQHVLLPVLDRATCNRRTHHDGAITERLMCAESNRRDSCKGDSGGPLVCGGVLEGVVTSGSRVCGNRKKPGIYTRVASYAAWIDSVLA

Binder	Kd [1]	Kd [2]
KCD022 (antibody, V domains shown) VH: DVQLQESGPDLVKPSQSLSLTCTVTGYSITSGYSWHWIRQFPGNTLEWMGYIHYSGSTNYNPSLESRISFTRDTSKNQFFLQLNSVTTEDTATYYCALHFYGYNLGWYFDVWGAGTTVTVSS VL: DIVMTQSHKFMSTSIGDRVIITCKASQDVGTTVAWYQQRPGQSPKLLIYWASTRHTAVPDRFTGSGSGTDFTLTISNVQSEDLADYFCQQYTSYPLTFGAGTQLELK	56.8 nM	–
KCD010 (antibody, V domains shown) VH: EVLLQQSGPELVKPGASVKIPCKASGYTFTDYDMDWVKQSHGKSLEWIGHINPNNGGTIYNQKFKGKATLTVDKSSSTAYMELRSLTSEDTAVYYCGTGDFAYWGHGTLVTVSA VL: QIVLTQSPAIMSVSPGEKVTLTCSASSSVSSSYLYWYQKKPGSSPKLWIYSTSNLASGVPARFSGSGSGTSYSLTISSMEAEDAASYFCHQWSSYPPTFGAGTKLELK	3.05 nM	–
KCD023 (antibody, V domains shown) VH: EVLLQQSGPELVKPGASVKIPCKASGYTFTDYNIDWVKQSHGKSLEWIGDINPNNGGINYNQKFKGKATLTVDKSSSTAYMELRSLTSEDTAVYYCGTGDYAYWGQGTLVTVSA VL: QIVLTQSPAFMSASPGEKVTLTCSASSSVSSSYLYWYQQKPGSSPKLWIYSTSNLASGVPGRFSGSGSGTSYSLTISSMEAEDAASYFCHQWTSYPPTFGAGTKLELK	5.29 nM	–
KCD005 (antibody, V domains shown) VH: EVQLQQSGPELVKPGASVKISCKASGYTFTDHYMNWVKQSHGKSLEWIGDINPNNGGTSCNQKFKGKATLTVDKSSSTAYMELRSLTSGDSAVYYCTREGASFAFWGQGTLVTVSA VL: DVLMTQTPLSLPVSLGDQASISCRSSQSIVHSNGDTYLEWYLQKPGQSPKLLIYKVSNRFSGVPDRFSGSGSGTDFTLKISRVEAEDLGVYYCFQGSHVPVTFGAGTKLELK	1.39 nM	–
KCD009 (antibody, V domains shown) VH: QIQLVQSGPELKKPGETVKISCKASGYIFRNYGMNWVKQGPGKGLKWMGWINTYTGEPTYADDFKGRFAFSLETSASTAYLQISNLKNEDTATYFCVRDGPGFAYWGQGTLVTVSA VL: DVLMTQTPLSLPVSLGDQASISCRSSLIIEHSDGNTYLEWYLQKPGQSPKLLIYKVSNRFSGVPDRFSGSGSGTDFTLKISRVEADDLGVYYCFQGSHVPVTFGAGTNLELK	5.57 nM	–
KCD124 (antibody, V domains shown) VH: EVQLQQSGPELVKPGASVKISCKASGYTFTDHYMNWVKQSHGKSLEWIGDINPNNGGTSYNQKFKGKATLTVDKSSSTAYMELRSLTSGDSAVYYCTREGASFAFWGQGTLVTVSA VL: DVLMTQTPLSLPVSLGDQASISCRSSQSIVHSNGDTYLEWYLQKPGQSPKLLIYKVSNRFSGVPDRFSGSGSGTDFTLKISRVEAEDLGVYYCFQGSHVPLTFGAGTKLELK	4.32 nM	–
KCD015 (antibody, V domains shown) VH: EVQLQQSGAELVKPGASVKLSCTASGFNIKDTYMHWVKQRPEQGLEWIGRIDPANGYTEYDPKFQGKATITADTSSNTAYLQLSSLTSEDSAAYYCTSAMEFWGQGTSVTVSS VL: QIVLTQSPAILSASPGEKVTMTCSASSSVSYIYWYQQKPRSSPRLLIYDTSNLASGVPVRFSGSGSGTSYSLTISRMEAEDAATYYCQQWSSYPFTFGGGTKLEVK	6.23 nM	–
KCD001 (antibody, V domains shown) VH: EVQLQQSGPELVKPGASVKISCKASDNSFTGYYMHWVKQSHGNILDWIGYIDPYNGVSSYNQKFKGKATLTVDKSSSTAYMEIRSLTSEDSAVYYCASYYGSSPYWYFDVWGTGTTVTVSS VL: QIVLSQSPAILSASPGEKVTMTCRASSSVSYMHWYQQKPGSSPKPWIYATSNLASGVPARFSGSGSGTSHFLTISRLEAEDAATYFCQQWSSNPYTFGGGTKLEIK	0.225 nM	–
KCD111 (antibody, V domains shown) VH: EVQLQQSGPELVKPGASVKISCKASGYSFTDYYMHWVKQSHGNILDWIGYIDPYNGVSSYNQKFKGKATLSVDQSSSTAYMELRSLTSEDSAVYYCSSYYGSSPYWYFDVWGTGTRVTVSS VL: QIVLSQSPAILSASPGEKVTMTCRASSSVSYMHWYQQKPGSSPKPWIYATSNLASGVPTRFSGSGSGTSYSLTISKLEAEDAATYYCQQWSSNPYTFGGGTKLEIK	–	7.2 nM
